{"source": "patent US20220267458A1", "key": {"human GITR-His (human) [1]": {"target": "human GITR-His (human) (UniProt Q9Y5U5)", "sequence (Q9Y5U5 other isoform, or with tags, fused parts or gaps)": "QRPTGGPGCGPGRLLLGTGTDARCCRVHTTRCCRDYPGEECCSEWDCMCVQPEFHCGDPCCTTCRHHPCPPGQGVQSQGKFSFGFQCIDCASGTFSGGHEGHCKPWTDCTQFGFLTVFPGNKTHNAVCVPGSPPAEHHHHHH", "assay": "ForteBio BLI, antibody on AHQ tip, human GITR-His 100 nM in solution, 1:1 model"}, "[2]": {"target": "human GITR overexpressed on CHO cells (CHO-GITR) (human) (UniProt Q9Y5U5)", "sequence (Q9Y5U5 26-241)": "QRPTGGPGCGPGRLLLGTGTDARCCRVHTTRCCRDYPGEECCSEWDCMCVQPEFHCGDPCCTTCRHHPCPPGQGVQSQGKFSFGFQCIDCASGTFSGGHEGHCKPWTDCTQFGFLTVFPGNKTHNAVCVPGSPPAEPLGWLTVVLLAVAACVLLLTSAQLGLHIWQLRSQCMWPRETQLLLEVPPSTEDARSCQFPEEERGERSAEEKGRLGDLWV", "assay": "flow cytometry on CHO-GITR cells, PE anti-human Fc detection, MFI; direct binding titration, the table row is labelled IC50, nM is taken from the concentration axis"}, "human GITR-His (human) [3]": {"target": "human GITR-His (human) (UniProt Q9Y5U5)", "assay": "ForteBio BLI, antibody on AHQ tip, human GITR-His 100 nM in solution"}, "human GITR-His (human) [4]": {"target": "human GITR-His (human) (UniProt Q9Y5U5)", "assay": "ForteBio BLI, antibody on AHQ tip, human GITR-His 100 nM in solution", "remark": "listed apart in the source"}, "[5]": {"target": "GITR protein overexpressed on Hela cells (Hela-GITR-NF-κB-Luc-Rep)", "assay": "cell-based or functional assay"}}, "note": "pKd: −log10 of the molar value.", "data": [{"substance": "TRX518 (antibody)", "values": [{"measurement": "pKd", "setting": "human GITR-His (human) [1]", "value": 7.58}, {"measurement": "koff", "setting": "human GITR-His (human) [1]", "value": 0.00484, "unit": "s⁻¹"}, {"measurement": "kon", "setting": "human GITR-His (human) [1]", "value": 185000, "unit": "M⁻¹ s⁻¹"}, {"measurement": "EC50 for binding", "setting": "[2]", "value": 0.242, "unit": "nM"}, {"measurement": "pKd", "setting": "human GITR-His (human) [3]", "value": 8.07}, {"measurement": "koff", "setting": "human GITR-His (human) [3]", "value": 0.00292, "unit": "s⁻¹"}, {"measurement": "kon", "setting": "human GITR-His (human) [3]", "value": 342000, "unit": "M⁻¹ s⁻¹"}, {"measurement": "pKd", "setting": "human GITR-His (human) [4]", "value": 8.02}, {"measurement": "koff", "setting": "human GITR-His (human) [4]", "value": 0.00206, "unit": "s⁻¹"}, {"measurement": "kon", "setting": "human GITR-His (human) [4]", "value": 214000, "unit": "M⁻¹ s⁻¹"}, {"measurement": "EC50 for the activation (NF-κB luciferase reporter)", "setting": "[5]", "value": 2.1, "unit": "nM"}]}]}
